B1: BG138P-Bz3 (antibody, human IgG1, V domains shown)
VH: QVQLVQSGAEVKKPGASVKVSCKASGYTFTTYTMHWIKQAPGQRLEWIGYINPGSDYTHYNQKFKDKATLTADKSASTAYMELYSLRSEDTAVYYCARQGNYAAYYFDYWGQGTLVTVSS
VL: DIQMTQSPSSLSASVGDRVTITCRASGNIHNFLVWYQQKPGKSPKLLVYNAKTLTDGVPSRFSGSGSGTQYSLTISSLQPEDVATYYCQNFWNVPFTFGSGTKLEIK
B2: BG138P-Bz16 (antibody, human IgG1, V domains shown)
VH: B1 VH with R44G
VL: B1 VL with S100Q
B3: BG138P-Bz15 (antibody, human IgG1, V domains shown)
VH: B1 VH with R44G
VL: B1 VL with S72T
B4: BG138P-Bz6 (antibody, human IgG1, V domains shown)
VH: B1 VH with R44G, A68V
VL: B1 VL
B5: BG138P-Bz12 (antibody, human IgG1, V domains shown)
VH: B1 VH with R44G
VL: B1 VL with V48I
B6: BG138P-Bz13 (antibody, human IgG1, V domains shown)
VH: B1 VH with R44G
VL: B1 VL with Q70D
B7: BG138P-Bz4 (antibody, human IgG1, V domains shown)
VH: B1 VH with R44G, I48M
VL: B1 VL
B8: BG138P-Bz9 (antibody, human IgG1, V domains shown)
VH: B1 VH with R44G, K74T
VL: B1 VL
B9: BG138P-Bz14 (antibody, human IgG1, V domains shown)
VH: B1 VH with R44G
VL: B1 VL with Y71F
B10: BG138P-Bz2 (antibody, human IgG1, V domains shown)
VH: B1 VH with K38R, R44G
VL: B1 VL
B11: BG138P-Bz0 (antibody, human IgG1, V domains shown)
VH: B1 VH with R44G
VL: B1 VL
B12: BG138P-Bz5 (antibody, human IgG1, V domains shown)
VH: B1 VH with R44G, K67R
VL: B1 VL
B13: BG138P-Bz11 (antibody, human IgG1, V domains shown)
VH: B1 VH with R44G
VL: B1 VL with S43V
B14: BG138P-Bz1 (antibody, human IgG1, V domains shown)
VH: B1 VH with I37V, R44G
VL: B1 VL
B15: BG138P-Bz8 (antibody, human IgG1, V domains shown)
VH: B1 VH with R44G, A72R
VL: B1 VL
B16: BG138P-Bz10 (antibody, human IgG1, V domains shown)
VH: B1 VH with R44G, Y84S
VL: B1 VL
B17: BG138P-Bz7 (antibody, human IgG1, V domains shown)
VH: B1 VH with R44G, L70I
VL: B1 VL
B18: BG138P-Hz0 (antibody, human IgG1, V domains shown)
VH: B1 VH with I37V, K38R, I48M, K67R, A68V, L70I, A72R, K74T, Y84S
VL: B1 VL with S43V, V48I, Q70D, Y71F, S72T, S100Q
B19: huBG138P-Hz2 (antibody, V domains shown)
VH: B1 VH with I37V, K38R, I48M, K67R, A68V, L70I, K74T, Y84S
VL: B1 VL with V48I, D56S, S72T, S100Q
B20: chBG138P (antibody, V domains shown)
VH: QVQLLQSGAELARPGASVKMSCKASGYTFTTYTMHWIKQRPGQGLEWIGYINPGSDYTHYNQKFKDKATLTADKSSSTAYMHLYSLTSEDSAVYYCARQGNYAAYYFDYWGQGTTLTVSS
VL: B1 VL with S9A, D17E, R18T, P40Q, K45Q, T74K, S76K, V83F, A84G
B21: chBG346P (antibody, V domains shown)
VH: EVQLQQSGAELVKPGASVKISCKASGYTFTNYWMNWVRQRPGQGLEWIGEIDPSDSYTNNNQKFKDKATLTVDKSSSTAYMQLSSLTSEDSAVYYCARGRRTGFAYWGQGTLVTVSS
VL: DIQMTQSPASLSVSVGETVTITCRASENIYSNLAWYQKKQGKSPQLLVYAATNLADGVPSRFSGSGSGTQYSLKINSLQSEDFGNYYCQHFWGTPYTFGGGTKLEIK
B22: chBG219P (antibody, V domains shown)
VH: EVQLVESGGGLVKPGGSLKLSCAASGFTFNDYIMSWVRQTPEKRLEWVATVSSGGDNTYYPDSVKGRFTISRDNAKNNLYLQMSSLRSEDTALYYCTRYGGLGAMDYWGQGTSVTVSS
VL: DIVMTQSPASLSASVGETVTITCRASGNIHNYLTWYQQKQGKSPQLLVYNAKTLADGVPSRFSGSGSGPQYSLKINSLQPEDFGSYYCQHFWSVPYTFGGGTRLEIK

Positions count from the first letter of the chain named.

Usually Kd stands for the concentration at which binding is half-saturated. Broadly, the EC50 (read off the curve) is the concentration that produces a half-maximal response. Lower therefore signals an effect from little substance. As usually defined, the EC50 is the midpoint of the concentration-response curve.

One assay concerns the target cynomolgus MUC1 SEA domain protein (cynomolgus). The experiment in a line: SPR (Biacore 2000), antibody captured, cynoMUC1 SEA analyte, 1:1 binding.
In turn, B1 registered a Kd of 9.04 nM.
For B2, the Kd amounted to 5.6 nM.
On the same count and under the same terms, under B3 stands 6.11 nM.
B4 registered an equilibrium dissociation constant (Kd) of 6.79 nM.
On the same count and under the same terms, under B5 stands 6.56 nM; under B6, 6.7 nM.
In the case of B7, the dissociation constant (Kd) was determined as 6.73 nM.
The same measure, in the same setting: to B8 belongs 6.81 nM.
Same read-out and setting: to B9 belongs 24.4 nM; to B10, 6.96 nM; to B11, 6.59 nM.
The same measure, in the same setting: under B12 stands 6.31 nM; under B13, 9.42 nM; under B14, 7.18 nM.
B15: the Kd is 13.5 nM.
Same read-out and setting: to B16 belongs 6.28 nM.
Same read-out and setting: under B17 stands 4.35 nM; under B18, 91.7 nM.

For a further assay the target is unchanged. Nature of the assay: SPR, antibody captured, cynoMUC1 SEA analyte.
B19: the equilibrium dissociation constant (Kd) came to 6.67 nM.

The target in the next assay is full-length cynomolgus MUC1 on stably transfected cells (cynomolgus). Nature of the assay: FACS (iQue3) on HEK293-cynoMUC1 cells.
Sequence of full-length cynomolgus MUC1 on stably transfected cells (cynomolgus) (chain, as listed by the source limits assumed, form in doubt): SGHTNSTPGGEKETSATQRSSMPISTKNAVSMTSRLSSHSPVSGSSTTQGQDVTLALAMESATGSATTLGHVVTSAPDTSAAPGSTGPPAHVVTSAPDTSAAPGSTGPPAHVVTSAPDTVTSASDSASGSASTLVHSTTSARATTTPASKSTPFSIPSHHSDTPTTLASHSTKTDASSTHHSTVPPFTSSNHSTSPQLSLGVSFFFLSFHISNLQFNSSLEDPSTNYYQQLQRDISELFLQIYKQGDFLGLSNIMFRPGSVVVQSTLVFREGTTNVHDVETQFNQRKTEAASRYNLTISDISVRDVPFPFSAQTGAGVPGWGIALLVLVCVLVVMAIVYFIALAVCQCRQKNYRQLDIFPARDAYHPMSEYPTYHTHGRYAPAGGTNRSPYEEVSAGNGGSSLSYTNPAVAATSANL
Take B20: the half-maximal effective concentration (EC50 (read off the curve)) came to 4 nM.
Consider B19, for which the concentration for a half-maximal effect (EC50 (read off the curve)) amounted to 3 nM.

A further assay has the same target. Nature of the assay: FACS on HEK293/cyno MUC1.
The molecule B21 returned a half-maximal effective concentration (EC50) of 41.8 nM.
Same read-out and setting: to B20 belongs 7.55 nM; to B22, 12.7 nM.

The values above are taken from patent publication US20250382384A1.
